Source: article doi:10.1101/2021.10.29.466484, “Clamping of DNA shuts the condensin neck gate” (bioRxiv, 2021)

B1: Smc2 (natural protein, S. cerevisiae)
chain: MKVEELIIDGFKSYATRTVITDWDPQFNAITGLNGSGKSNILDAICFVLGIASMSTVRASSLQDLIYKRGQAGVTKASVTIVFDNTDKSNSPIGFTNSPQISVTRQVVLGGTSKYLINGHRAPQQSVLQLFQSVQLNINNPNFLIMQGKITKVLNMKPSEILSLIEEAAGTKMFEDRREKAERTMSKKETKLQENRTLLTEEIEPKLEKLRNEKRMFLEFQSTQTDLEKTERIVVSYEYYNIKHKHTSIRETLENGETRMKMLNEFVKKTSEEIDSLNEDVEEIKLQKEKELHKEGTISKLENKENGLLNEISRLKTSLSIKVENLNDTTEKSKALESEIASSSAKLIEKKSAYANTEKDYKMVQEQLSKQRDLYKRKEELVSTLTTGISSTGAADGGYNAQLAKAKTELNEVSLAIKKSSMKMELLKKELLTIEPKLKEATKDNELNVKHVKQCQETCDKLRARLVEYGFDPSRIKDLKQREDKLKSHYYQTCKNSEYLKRRVTNLEFNYTKPYPNFEASFVHGVVGQLFQIDNDNIRYATALQTCAGGRLFNVVVQDSQTATQLLERGRLRKRVTIIPLDKIYTRPISSQVLDLAKKIAPGKVELAINLIRFDESITKAMEFIFGNSLICEDPETAKKITFHPKIRARSITLQGDVYDPEGTLSGGSRNTSESLLVDIQKYNQIQKQIETIQADLNHVTEELQTQYATSQKTKTIQSDLNLSLHKLDLAKRNLDANPSSQIIARNEEILRDIGECENEIKTKQMSLKKCQEEVSTIEKDMKEYDSDKGSKLNELKKELKLLAKELEEQESESERKYDLFQNLELETEQLSSELDSNKTLLHNHLKSIESLKLENSDLEGKIRGVEDDLVTVQTELNEEKKRLMDIDDELNELETLIKKKQDEKKSSELELQKLVHDLNKYKSNTNNMEKIIEDLRQKHEFLEDFDLVRNIVKQNEGIDLDTYRERSKQLNEKFQELRKKVNPNIMNMIENVEKKEAALKTMIKTIEKDKMKIQETISKLNEYKRETLVKTWEKVTLDFGNIFADLLPNSFAKLVPCEGKDVTQGLEVKVKLGNIWKESLIELSGGQRSLIALSLIMALLQFRPAPMYILDEVDAALDLSHTQNIGHLIKTRFKGSQFIVVSLKEGMFANANRVFRTRFQDGTSVVSIM
notes: Smc2, SMC subunit of budding yeast (S. cerevisiae) condensin, wild type; Expressed from pGAL10-SMC2 together with the other subunits; Only the head domain and proximal coiled coil are resolved in the maps
B2: Ycs4 (natural protein, S. cerevisiae)
chain: MSGFSLSEYLTKFQTTDRESYPRLQDPSRELNVIIDQLAVSPEQIDASPDSLEALIDLCHDFPHLTPKLQTQLSYLISSSLSNLSKDIKANLSSNVNFTEIGGLIPQWKRHLEEYGYLIQVLLTFLQDELHKVSSQSTNLNRSAKNSKNDSANVELFKRDCNQMENLLESITKLLEINLSKIFQTTPEKDLFIGLFTRPLFVLLEIEPVTKVSSLKMFIQRILAMCVKNHGQSSSIQSSLMTNLTYFLHLSVFNAELLKLLNDEYNYPQLTEDILKEISTRVFNAKDTTGPKAISNFLIKLSELSPGIMLRQMNLVITLLNNSSITLRCSVVEACGNIVAELAQDPQTMEHYKQQIAVLIELLEERFQDSNPYVRTKAIQGCSKICDLSSKFNKSKAKFTSLAVRSLQDRSSLVRRNSVKLLSKLLLKHPFKAIHGSQLRLSEWEEYLKGSESQLNSTLKKVESQETLNDTIERSLIEEEVEQDEGQCRTELEGSFNKSAELSRIENEVENINATNTSVLMKLKLMIVYYKDAISFIKEIHKSIELISNLLFSKNRNEVLESMDFLVLADAFDIELSEFGIKKMLHLVWMKGTNDEGTSISVHLIECYKQLFLTAPDSCNMQEKAAHIAKNLINLSIGASIADLASLEQLLGMMYEQKLIDQHVINILWAIYNSASKASMQKEQNVNNRDSEKGFSKEQIHGSIIILGMLSLADNEIALKGLESLLNIGLGAVGLKDLTLCRYSCLALERMVPKRSTIITKAINQELEDVAVKKLYAIIINYTKDNEYYPMCEQALSALFTISSKPDILATDLIREKTMMTFGKPEEEDSILSLEQSSRVVSLSQLLFIVGQVAIKTLVYLEKCEAEFKKRKIEAETRNGKVKNQGADVTNTTQDNGGDKELEMIGGTNEDDFTDAIQFVKENELLFGEKSILGKFCPIVEEIVSNSSRFSDPMLQRTATLCLEKLMCLSSKYCEKSLPLLITVMEKSPDPTIRSNAVLGLGDMAVCFNNLVDENTDYLYRRLHDENLMVQRTCLMTVTFLILAGQVKVKGQLGEMAKCLDNPDQGISDMCRLFFTELASKDNAIYNGFIDIFSNLSSDDLLGKESFKKIIKFLLTFIDKERHQKQLNEKLVGRLRKCETQKQWDDIAFVLNNLPYKNEDVTALLEQGFKVVSAKE
notes: Ycs4, HAWK subunit of budding yeast (S. cerevisiae) condensin, wild type

Legend:
Conditions in all cases: both partners purified
Smc4 [1] = molecular target: T1, Smc4 (S. cerevisiae, UniProt Q12267 1-1418); test: cryo-EM structure; condensin tetramer (Smc2, Smc4, Brn1, Ycs4) with 80 bp dsDNA, 5 mM ADP, 1 mM BeSO4, 10 mM NaF; TNT buffer (30 mM Tris/HCl, 60 mM NaCl, 1 mM TCEP, 2 mM MgCl2, pH 7.5); head module, Forms I and II
T1 construct: Smc4, SMC subunit of budding yeast (S. cerevisiae) condensin, wild type; Only the head domain and proximal coiled coil are resolved in the maps; also called SMC4-3xStrepII
T1 sequence: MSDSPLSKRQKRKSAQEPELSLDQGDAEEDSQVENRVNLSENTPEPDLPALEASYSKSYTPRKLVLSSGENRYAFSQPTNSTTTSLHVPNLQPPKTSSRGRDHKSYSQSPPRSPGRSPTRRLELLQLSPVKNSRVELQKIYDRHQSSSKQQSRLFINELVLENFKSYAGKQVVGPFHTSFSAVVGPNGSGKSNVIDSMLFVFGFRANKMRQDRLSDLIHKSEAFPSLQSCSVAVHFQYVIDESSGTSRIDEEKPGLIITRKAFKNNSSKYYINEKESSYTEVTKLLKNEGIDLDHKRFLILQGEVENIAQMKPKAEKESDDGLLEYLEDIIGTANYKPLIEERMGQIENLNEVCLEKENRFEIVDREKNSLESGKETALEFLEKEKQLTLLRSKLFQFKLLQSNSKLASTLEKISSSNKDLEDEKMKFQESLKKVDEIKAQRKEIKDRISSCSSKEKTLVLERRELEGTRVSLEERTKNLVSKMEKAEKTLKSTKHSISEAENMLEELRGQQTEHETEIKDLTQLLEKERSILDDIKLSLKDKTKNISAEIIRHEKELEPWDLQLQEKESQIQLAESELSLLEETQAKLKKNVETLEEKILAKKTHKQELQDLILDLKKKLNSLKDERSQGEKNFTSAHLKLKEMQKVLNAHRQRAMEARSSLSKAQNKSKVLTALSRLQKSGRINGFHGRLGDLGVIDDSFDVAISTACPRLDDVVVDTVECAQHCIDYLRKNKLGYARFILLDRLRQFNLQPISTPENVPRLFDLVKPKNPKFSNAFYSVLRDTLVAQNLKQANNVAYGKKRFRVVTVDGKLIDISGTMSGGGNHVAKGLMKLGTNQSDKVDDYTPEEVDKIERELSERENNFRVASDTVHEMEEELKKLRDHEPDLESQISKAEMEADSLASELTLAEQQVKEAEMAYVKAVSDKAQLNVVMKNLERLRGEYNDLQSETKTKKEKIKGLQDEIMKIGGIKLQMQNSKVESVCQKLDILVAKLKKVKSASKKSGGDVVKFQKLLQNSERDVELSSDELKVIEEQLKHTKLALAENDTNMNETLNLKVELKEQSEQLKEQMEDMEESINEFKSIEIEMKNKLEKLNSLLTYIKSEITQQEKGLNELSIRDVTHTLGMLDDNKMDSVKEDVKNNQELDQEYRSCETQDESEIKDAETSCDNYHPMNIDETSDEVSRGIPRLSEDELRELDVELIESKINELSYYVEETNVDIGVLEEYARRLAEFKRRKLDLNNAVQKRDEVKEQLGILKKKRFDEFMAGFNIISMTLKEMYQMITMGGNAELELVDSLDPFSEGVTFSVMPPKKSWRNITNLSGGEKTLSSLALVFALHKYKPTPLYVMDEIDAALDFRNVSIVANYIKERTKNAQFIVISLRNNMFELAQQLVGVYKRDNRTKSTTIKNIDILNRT

Ycs4 = molecular target: B2; test: cryo-EM structure; condensin pentamer (Smc2, Smc4, Brn1, Ycs4, Ycg1) with 80 bp dsDNA, ADP and BeF3; separate maps of the head module and of Ycg1-DNA from one dataset
Smc4 [2] = molecular target: T1, Smc4; test: as above

| Binder | binding result (Smc4 [1]) | binding result (Ycs4) | binding result (Smc4 [2]) |
| --- | --- | --- | --- |
| B1 | binds | binds | – |
| B2 | – | – | binds |
